Measured values published in the MegaScale stability set (Tsuboyama et al. 2023).

B1: EHEE_rd2_0196 (parent)
chain: TETRTFDSEEEAKKAQKEAEKQGRTVTITRRDDRWEVRFD

Variants of: B1
Experiment: folding stability dG (cDNA display proteolysis); higher = more stable
Details: PBS, room temperature

Folding stability dG [kcal/mol], by site and new letter:
D7: T 2.76, W 3.19, V 2.51, Y 3.18
K13: C 3.06, H 2.72, A 2.54, W 2.95, F 3.23, P 0.105, D 2.09, S 2.45, E 2.63, Q 2.97, V 3.2, G 2.02, R 3.13, Y 3.29, L 3.5, N 2.64, I 3.37, T 2.75, M 3.18
E18: H 2.55, F 2.32, T 2.42, R 2.46, S 2.38, M 2.81, Q 2.65, Y 2.31, K 2.36, P 0.538, D 2.87, W 2.63, A 2.79, I 2.74, C 3, G 1.75, L 2.79, N 2.46, V 2.58
A19: L 3.39, I 2.47, N 1.72, P 0.448, K 1.33, W 3.05, H 2.19, Q 2.13, T 1.27, D 1.41, F 3.12, V 1.78, S 1.97, G 2.75, Y 3.25, M 3.04, R 1.21, E 2.28
Q16: P 0.25, Y 2.83, G 2.99, F 2.97, M 3.32, S 2.69, V 3.18, A 3.91, T 2.27, E 2.45, R 2.63, C 2.99, L 2.89, D 0.725, W 2.53, H 2.07, K 3.04, N 0.943, I 2.97
A12: H 0.139, N 0.221, Y 1.08, P 0.214, V 1.98, I 0.724, T 1.04, D 0.06, G 0.827, K 0.241, R 0.086, M 1.9, F 1.05, S 1.06, L 1.49, E 0.203, W 0.806, Q 0.157
E10: R 2.28, T 2.04, L 2.51, D 2.76, S 2.18, A 2.86, Q 2.67, H 2.5, N 2.17, K 2.46, C 3.04, I 2.58, W 2.93, M 2.59, G 2.21, V 2.58, F 2.69, Y 2.71, P 1.88
E11: I 1.46, L 2.4, D 2.95, Q 2.54, W 1.28, G 2.34, K 2.21, Y 1.46, R 1.47, P 0.769, N 1.96, S 2.18, T 1.75, F 1.47, V 1.43, A 2.75, H 1.61, M 2.47
A15: D 1.13, S 2.18, K 1.45, Q 2.08, R 1.46, H 2.69, E 2.24, G 1.18, V 2.91, M 2.79, W 3.37, P 0.28, T 2.04, I 2.69, N 1.58, L 2.76, Y 3.95, F 4.24
K21: L 3.22, G 3.06, S 3.19, I 2.82, W 2.55, P 1.11, Y 2.64, R 3.11, H 2.82, Q 3.11, M 3.11, T 2.85, N 2.96, F 2.66, D 3.08, E 3.18, A 3.41, V 2.72
T25: G 2.32, Q 2.81, S 2.9, E 2.28, I 2.99, F 2.43, K 3.13, V 3.09, A 2.83, D 1.97, L 2.77, N 2.69, M 2.67, P 2.21, R 3.32, H 3.16
S8: I 1.77, A 1.68, W 1.13, G 1.56, K 2.11, T 3.37, R 2.12, V 1.78, Y 1.64, L 2.02, M 1.63, N 2.79, E 1.66, H 2.12, D 2.27, Q 1.82, F 1.8, P 0.072
K14: Y 2.95, N 3.05, D 2.9, V 2.94, H 3.05, Q 3.23, L 3.23, W 3.02, T 2.9, R 3.02, C 3.46, E 3.15, F 3.02, S 2.89, G 2.5, M 3.23, P 0.356, A 3.29, I 3.07
Q22: N 3.02, C 3.26, S 2.92, D 2.88, R 2.84, E 3.06, A 3.08, L 3.19, V 2.81, W 2.8, I 2.83, Y 2.73, T 2.82, M 3.24, F 2.79, K 2.73, G 2.58, H 2.99, P 1.55
G23: Q 1.67, V 0.857, M 1.57, I 0.786, Y 1.75, D 1.39, W 1.64, K 1.61, F 1.81, N 2.01, R 1.63, T 0.908, S 1.57, H 2.15, A 1.56, P 0.683, C 2.46, L 1.47, E 1.11
E9: V 2.25, M 2.38, P 1.92, R 1.49, N 1.26, Y 3.58, W 3.38, S 1.42, D 1.47, G 1.03, K 1.66, L 3.33, I 2.73, A 2.01, Q 2.18, T 0.823, F 3.42, H 2.28
R24: D 2.29, N 2.13, T 2.22, L 3.23, F 3.59, M 3.32, A 2.56, P 0.456, E 2, K 3.01, W 3.24, I 3.23, H 3, S 2.19, Q 2.84, G 1.93, Y 3.62, V 2.85
E20: L 3.14, I 2.85, F 2.77, C 2.81, P 0.742, W 2.94, G 2.13, K 2.4, Q 2.86, T 2.52, H 2.64, D 2, Y 2.56, V 2.67, N 2.53, R 2.46, S 2.47, M 3.06, A 2.88
K17: M 3.21, G 2.67, T 2.91, L 3.25, N 2.82, H 2.98, I 3.22, D 2.92, Q 3.08, E 3.17, A 3.25, Y 3.23, P 0.527, V 3.15, S 3.02, F 3.13, R 3.13, W 3.18
